Source: patent publication US20200157212A1 (Pfizer, published 2020)

Target: T1, Human ROBO2 KSR mutant overexpressed on HEK293 cells (human, UniProt Q9HCK4 22-1378)
T1 construct: R100K and K102R already in the entry
T1 sequence: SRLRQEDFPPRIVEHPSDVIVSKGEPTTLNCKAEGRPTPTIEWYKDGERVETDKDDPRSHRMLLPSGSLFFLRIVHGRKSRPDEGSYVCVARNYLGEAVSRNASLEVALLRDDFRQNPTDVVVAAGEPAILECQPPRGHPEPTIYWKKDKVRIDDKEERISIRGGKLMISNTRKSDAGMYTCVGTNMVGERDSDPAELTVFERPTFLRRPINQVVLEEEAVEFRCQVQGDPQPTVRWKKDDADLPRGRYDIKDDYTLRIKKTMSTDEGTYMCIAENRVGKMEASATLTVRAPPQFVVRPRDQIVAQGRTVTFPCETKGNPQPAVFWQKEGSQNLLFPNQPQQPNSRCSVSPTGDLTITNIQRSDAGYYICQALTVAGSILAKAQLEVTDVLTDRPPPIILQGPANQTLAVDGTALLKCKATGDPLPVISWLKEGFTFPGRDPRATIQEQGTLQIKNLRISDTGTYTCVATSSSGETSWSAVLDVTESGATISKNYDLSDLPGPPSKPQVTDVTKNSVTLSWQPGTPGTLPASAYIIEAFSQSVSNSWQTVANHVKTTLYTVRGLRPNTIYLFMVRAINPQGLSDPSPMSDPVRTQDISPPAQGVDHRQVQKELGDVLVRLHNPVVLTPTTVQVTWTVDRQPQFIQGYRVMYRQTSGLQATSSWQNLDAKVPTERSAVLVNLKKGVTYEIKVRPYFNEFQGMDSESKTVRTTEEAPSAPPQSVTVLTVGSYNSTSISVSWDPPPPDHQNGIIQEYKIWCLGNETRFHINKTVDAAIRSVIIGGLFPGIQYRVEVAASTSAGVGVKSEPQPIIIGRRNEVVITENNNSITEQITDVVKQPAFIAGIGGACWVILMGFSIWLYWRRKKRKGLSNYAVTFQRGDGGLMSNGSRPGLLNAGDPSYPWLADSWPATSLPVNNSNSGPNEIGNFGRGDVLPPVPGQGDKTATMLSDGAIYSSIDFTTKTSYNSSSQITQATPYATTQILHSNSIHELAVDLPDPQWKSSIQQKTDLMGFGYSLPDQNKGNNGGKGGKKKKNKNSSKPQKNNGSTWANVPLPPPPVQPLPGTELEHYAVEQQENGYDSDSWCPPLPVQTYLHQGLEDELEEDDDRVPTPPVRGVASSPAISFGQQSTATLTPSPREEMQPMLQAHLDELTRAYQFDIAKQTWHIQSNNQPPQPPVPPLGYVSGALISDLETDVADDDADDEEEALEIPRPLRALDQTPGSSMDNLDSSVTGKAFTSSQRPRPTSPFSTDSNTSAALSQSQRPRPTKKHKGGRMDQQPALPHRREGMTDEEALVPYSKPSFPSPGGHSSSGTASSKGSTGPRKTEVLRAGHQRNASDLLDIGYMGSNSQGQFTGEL
Assay: flow cytometry on HEK293 cells overexpressing the ROBO2-KSR mutant
Description: Binding of the antibodies was detected using a secondary fluorochrome conjugated anti-human IgG F(ab′)₂ antibody and samples were analyzed on a Fortessa cytometer (BD Biosciences). The fold ROBO2 selectivity was calculated as the geometric mean fluorescence intensity (Geo MFI) with ROBO2 cells/Geo MFI with ROBO1 cells. A fold change higher than 3 was considered to be ROBO2 specific (Table 2, Fold Selectivity). Some affinity matured clones had increased ROBO1 reactivity, for example Abcs 55, CTI-R2-10 and CTIR2-13.
Based upon several criteria, Abcs25 and Abcs35 were selected for further characterization. Using flow cytometry, improvement in the binding EC₅₀ to human ROBO2 relative to the parental 93H2 was evaluated. […] Using HEK293 cells overexpressing either cynomolgus monkey ROBO2 or rat ROBO2, the relative dose-dependent binding of 93H2, Abcs25 and Abcs35 was evaluated as described above. […] Association of ROBO2 Ig1-Ig2-His (ROBO2) was measured over 5 minutes and dissociation was followed for a period of 10 minutes.
RSK specificity for Abcs35, along with 93H2 and Abcs25, also was confirmed in a cell-based binding assay using flow cytometry. […] As described above in Example 3, dose-dependent binding was evaluated.

B1: Abcs35 (antibody, human IgG1, kappa)
heavy: EVQLVQSGAEVKKPGASVKVSCKASGYTFTGYYMHWVRQAPGQGLEWMGWINPKNGDTEFPQKFQGRVTMTRDTSITTAYMDLSRLRSDDTAVYYCARESGDDAFDIWGQGTMVTVSSASTKGPSVFPLAPSSKSTSGGTAALGCLVKDYFPEPVTVSWNSGALTSGVHTFPAVLQSSGLYSLSSVVTVPSSSLGTQTYICNVNHKPSNTKVDKKVEPKSCDKTHTCPPCPAPEAAGAPSVFLFPPKPKDTLMISRTPEVTCVVVDVSHEDPEVKFNWYVDGVEVHNAKTKPREEQYNSTYRVVSVLTVLHQDWLNGKEYKCKVSNKALPAPIEKTISKAKGQPREPQVYTLPPSREEMTKNQVSLTCLVKGFYPSDIAVEWESNGQPENNYKTTPPVLDSDGSFFLYSKLTVDKSRWQQGNVFSCSVMHEALHNHYTQKSLSLSPGK
light: DIVMTQSPSSLSASVGDRVTITCRASQSISSYLNWYQQKPGKAPKLLIYAASSLQSGVPSRFSGSGSGTDFTLTISSLQPEDFATYYCQQSVGLFFGGGTKVEIKRTVAAPSVFIFPPSDEQLKSGTASVVCLLNNFYPREAKVQWKVDNALQSGNSQESVTEQDSKDSTYSLSSTLTLSKADYEKHKVYACEVTHQGLSSPVTKSFNRGEC
notes: fully human IgG1; VH of Ab96 with VL of Ab123
binding result: no binding
